Residue numbers refer to the chain shown, from its start. Names and notes keep the numbering of the source.

The target of assay [1] is T1, human TGFßRII on human PBMCs / T cells (human, UniProt P37173 23-567).
T1 construct: whole, on cells; also called cell-surface TGFßRII; TGFßR2
Description: flow cytometry, Alexa647-labeled mAb on anti-CD3 activated human PBMCs. On the technique in general: Flow cytometry measures light scatter and fluorescence of single cells or particles in a stream.

Assay [2] concerns the target T2, human CD5 on human PBMCs / T cells (human, UniProt P06127 25-495).
T2 construct: whole, on cells
T2 sequence (looked up): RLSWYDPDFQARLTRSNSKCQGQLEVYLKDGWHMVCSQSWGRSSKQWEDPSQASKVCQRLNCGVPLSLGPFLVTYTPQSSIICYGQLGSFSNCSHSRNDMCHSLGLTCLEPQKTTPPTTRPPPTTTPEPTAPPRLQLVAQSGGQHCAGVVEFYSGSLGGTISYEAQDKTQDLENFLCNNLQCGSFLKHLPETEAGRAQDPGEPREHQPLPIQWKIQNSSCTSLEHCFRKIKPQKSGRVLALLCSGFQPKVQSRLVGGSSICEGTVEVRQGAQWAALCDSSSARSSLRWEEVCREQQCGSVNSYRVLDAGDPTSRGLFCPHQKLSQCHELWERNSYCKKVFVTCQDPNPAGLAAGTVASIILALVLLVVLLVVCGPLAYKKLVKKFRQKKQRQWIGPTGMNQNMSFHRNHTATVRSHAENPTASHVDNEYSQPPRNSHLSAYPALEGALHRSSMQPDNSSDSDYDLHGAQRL
Description: cell binding on unstimulated human PBMCs (FIG. 67).

The target in assay [3] is T3, His-tagged cynomolgus CD5 antigen (cynomolgus monkey).
T3 construct: also called cyno CD5
Description: method not stated; the filing prints 'TGFßRII' but the sentence is about restoring the CD5 affinity of Cd5-B VH variants, so the target is taken as CD5.

Assay [4] deals with T4, His-tagged human CD5 antigen (human, UniProt P06127 25-372, limits assumed).
T4 construct: not shown: His tag
T4 sequence (looked up): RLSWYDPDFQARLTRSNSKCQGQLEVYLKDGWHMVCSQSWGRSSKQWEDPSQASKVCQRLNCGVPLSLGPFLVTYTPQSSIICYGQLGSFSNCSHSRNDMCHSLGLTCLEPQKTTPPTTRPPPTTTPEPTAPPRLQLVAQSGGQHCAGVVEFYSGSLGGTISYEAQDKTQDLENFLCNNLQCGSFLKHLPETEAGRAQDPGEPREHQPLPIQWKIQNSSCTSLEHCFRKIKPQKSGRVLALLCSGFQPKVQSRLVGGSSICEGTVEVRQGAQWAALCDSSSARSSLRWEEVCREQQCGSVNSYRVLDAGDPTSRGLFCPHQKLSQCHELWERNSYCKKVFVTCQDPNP
The description is as above.

For assay [5], the target named is T2, human CD5 on human PBMCs / T cells. Description: flow cytometry on unstimulated human PBMCs, anti-human Fc Alexa647 secondary. How it is done: Next, cell binding of the bispecific antibodies were investigated. Unstimulated PBMCs were incubated with the indicated dose of bispecific antibodies for 1 hour on ice and washed. Next, the PBMCs were stained with goat anti-human Fc secondary antibody conjugated to Alexa647 (to assess binding of the bispecific antibodies) and antibodies against cell surface antigens (to define T cell populations) for 40 minutes on ice. Finally, the cells were analyzed by flow cytometry.

For assay [6], the target named is T4, His-tagged human CD5 antigen. Description: worded comparison of affinity (Octet KD values in FIG. 68). An excerpt:
In particular, His-tagged human and cynomolgus CD5 antigen were captured using HIS1K sensors and dipped into multiple concentrations of the bispecific antibodies.
(In general: BLI is a label-free optical method that tracks binding on a fibre tip over time.)

T1 sequence (P37173 23-567): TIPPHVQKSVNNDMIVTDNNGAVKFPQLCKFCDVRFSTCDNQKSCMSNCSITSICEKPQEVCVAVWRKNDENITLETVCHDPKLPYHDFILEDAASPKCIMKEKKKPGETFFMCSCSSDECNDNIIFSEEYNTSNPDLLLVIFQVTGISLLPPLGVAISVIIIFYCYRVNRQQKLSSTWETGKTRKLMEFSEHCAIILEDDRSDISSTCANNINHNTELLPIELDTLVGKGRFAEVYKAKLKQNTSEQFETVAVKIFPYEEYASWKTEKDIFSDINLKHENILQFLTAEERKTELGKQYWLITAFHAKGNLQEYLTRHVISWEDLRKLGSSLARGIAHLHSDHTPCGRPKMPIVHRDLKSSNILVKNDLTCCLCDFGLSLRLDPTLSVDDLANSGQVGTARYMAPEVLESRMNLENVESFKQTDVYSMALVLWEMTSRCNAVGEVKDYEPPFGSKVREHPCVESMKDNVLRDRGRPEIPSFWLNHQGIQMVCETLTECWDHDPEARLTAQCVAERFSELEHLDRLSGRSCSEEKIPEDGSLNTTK

B1: XENP28297 (antibody, human IgG1, kappa, V domains shown)
VH: QLQVQESGPGLVKPSETLSLTCTVSGGSISNSYFSWGWIRQPPGKGLEWIGSFYYGEKTYYNPSLKSRATISIDTSKSQFSLKLSSVTAADTAVYYCPRGPTVIRGVIDSWGQGTLVTVSS
VL: EIVLTQSPATLSLSPGERATLSCRASQSVRSYLAWYQQKPGQAPRLLIYDASNRATGIPARFSGSGSGTDFTLTISSLEPEDFAVYYCQQRSNWPPTFGQGTKVEIKR
modifications: The antibody was labeled with Alexa647 in the cell-binding assay. The dye position is not stated.
notes: also called bivalent anti-TGFßRII mAb based on TBRII-A; copies: 2 + 2
Turning to B1, the binding result in assay [1] was “binds”.

B2: XENP33038 (antibody, human IgG1, kappa, V domains shown)
VH: EVQLVESGGGLVKPGGSLRLSCAASGFTFSSFSMNWVRQAPGKGLEWVSSISSSSSYIYYTDSVKGRFTISRDNAKNSLYLQMNSLRAEDTAVYYCARGYWGFDYWGQGTLVTVSS
VL: DIQMTQSPSSLSASVGDRVTITCRASQGIRNDLGWYQQKPGKAPKRLIYAASSLQSGVPSRFSGSASGTEFTLTISSLQPEDFATYYCLQHNSNPLTFGGGTKVEIKR
modifications: Antibody labeled with Alexa647 in the assay; attachment sites not stated.
notes: labeled with Alexa647; also called illustrative anti-TGFßRII mAb XENP33038; copies: 2 + 2
As to B2, in assay [1], the binding result is “binds”.

B3: XENP35401 (antibody, human IgG1, kappa, V domains shown)
VH: EVQLVESGGGVVQPGRSLRLSCTFSGFSLSTSGMGVGWIRQAPGKGLEWVAHIWWDDDVYYNPSLKSRLTITKDASTDTVYMELSSLRSEDTAVYYCVRRRATGTGFDYWGQGTLVTVSS
VL: NIVMTQSPSSLSASVGDRVTITCQASQDVGTAVAWYQQKPDQSPKLLIYWTSTRHTGVPDRFTGSGSGTDFTLTISSLQPEDIATYFCHQYNSYNTFGSGTKLEIKR
notes: IgG1 backbone with E233P/L234V/L235A/G236del/S267K ablation variant; also called bivalent anti-CD5 mAb based on clone 5D7; 5D7; copies: 2 + 2
In the case of B3, the binding result in assay [2] is listed as “binds”.

B4: Cd5-B H2L1 (further humanized variant of Cd5-B) (antibody, V domains shown)
VH: QVQLVQSGAEVKKPGASVKVSCKASGYSFTSYWMNWVRQAPGQGLEWMGMIHPSDSETRYNQKFQGRVTMTVDKSTSTAYMELSSLRSEDTAVYYCARWGDHDDAMDFWGQGTMVTVSS
VL: DIVLTQSPSSLSASVGDRVTITCRPSENIYGYFAWYQQKPGKSPKLLVYNAKTLAEGVPSRFSGSGSGTDFTLTISSLQPEDFATYYCQHHYGTPFTFGPGTKVEIK
The term Kd denotes the equilibrium constant for the complex coming apart. Read a low Kd as tighter binding. Regarding B4, the dissociation constant Kd came out at 0.3 nM in assay [3] and 2 nM in assay [4].

B5: Cd5-B H1.23_L1 (further humanized variant of Cd5-B) (antibody, V domains shown)
VH: EVQLVQSGAEVKKPGESLKISCKASGYSFTSYWMNWVRQMPGKGLEWMGMIYPSDSETRYNQSFQGQVTISVDKSISTAYLQWSSLKASDTAMYYCARWGDHDDAMDFWGQGTMVTVSS
VL: B4 VL
With B5, the Kd in assay [3] amounted to 3 nM; in assay [4], 4 nM.

B6: Cd5-B H1.36_L1 (further humanized variant of Cd5-B) (antibody, V domains shown)
VH: B5 VH with Y52H, S63K
VL: B4 VL
On to B6, for which the results for the dissociation constant Kd in assay [3] and in assay [4] were 2 nM and 4 nM, respectively.

B7: XENP35399 (bispecific antibody, human IgG1, kappa)
heavy: EVQLVESGGGVVQPGRSLRLSCTFSGFSLSTSGMGVGWIRQAPGKGLEWVAHIWWDDDVYYNPSLKSRLTITKDASTDTVYMELSSLRSEDTAVYYCVRRRATGTGFDYWGQGTLVTVSSASTKGPSVFPLAPSSKSTSGGTAALGCLVKDYFPEPVTVSWNSGALTSGVHTFPAVLQSSGLYSLSSVVTVPSSSLGTQTYICNVNHKPSDTKVDKKVEPKSCDKTHTCPPCPAPPVAGPSVFLFPPKPKDTLMISRTPEVTCVVVDVKHEDPEVKFNWYVDGVEVHNAKTKPREEEYNSTYRVVSVLTVLHQDWLNGKEYKCKVSNKALPAPIEKTISKAKGQPREPQVYTLPPSREEMTKNQVSLTCDVSGFYPSDIAVEWESDGQPENNYKTTPPVLDSDGSFFLYSKLTVDKSRWEQGDVFSCSVMHEALHNHYTQKSLSLSPGK
scFv-Fc: QLQVQESGPGLVKPSETLSLTCTVSGGSISNSYFSWGWIRQPPGKGLEWIGSFYYGEKTYYNPSLKSRATISIDTSKSQFSLKLSSVTAADTAVYYCPRGPTVIRGVIDSWGQGTLVTVSSGKPGSGKPGSGKPGSGKPGSEIVLTQSPATLSLSPGERATLSCRASQSVRSYLAWYQQKPGQAPRLLIYDASNRATGIPARFSGSGSGTDFTLTISSLEPEDFAVYYCQQRSNWPPTFGQGTKVEIKEPKSSDKTHTCPPCPAPPVAGPSVFLFPPKPKDTLMISRTPEVTCVVVDVKHEDPEVKFNWYVDGVEVHNAKTKPREEQYNSTYRVVSVLTVLHQDWLNGKEYKCKVSNKALPAPIEKTISKAKGQPREPQVYTLPPSREQMTKNQVKLTCLVKGFYPSDIAVEWESNGQPENNYKTTPPVLDSDGSFFLYSKLTVDKSRWQQGNVFSCSVMHEALHNHYTQKSLSLSPGK
light: NIVMTQSPSSLSASVGDRVTITCQASQDVGTAVAWYQQKPDQSPKLLIYWTSTRHTGVPDRFTGSGSGTDFTLTISSLQPEDIATYFCHQYNSYNTFGSGTKLEIKRTVAAPSVFIFPPSDEQLKSGTASVVCLLNNFYPREAKVQWKVDNALQSGNSQESVTEQDSKDSTYSLSSTLTLSKADYEKHKVYACEVTHQGLSSPVTKSFNRGEC
notes: also called prototype anti-TGFßRII×anti-CD5 bsAb having CD5-targeting arm based on clone 5D7; αTGFßRII×αCD5
B7: the binding result in assay [5] is reported as “binds”.

B8: XENP37388 (bispecific antibody, human IgG1, kappa)
heavy: QVTLKESGAELVRPGASVKLSCKASGYSFTSYWMNWVKQRPGQGLEWIGMIHPSDSETRLNQKFKDKATLTVDKSSSTAYMQLSSPTSEDSAVYYCARWGDHDDAMDFWGQGTMVTVSSASTKGPSVFPLAPSSKSTSGGTAALGCLVKDYFPEPVTVSWNSGALTSGVHTFPAVLQSSGLYSLSSVVTVPSSSLGTQTYICNVNHKPSDTKVDKKVEPKSCDKTHTCPPCPAPPVAGPSVFLFPPKPKDTLMISRTPEVTCVVVDVKHEDPEVKFNWYVDGVEVHNAKTKPREEEYNSTYRVVSVLTVLHQDWLNGKEYKCKVSNKALPAPIEKTISKAKGQPREPQVYTLPPSREEMTKNQVSLTCDVSGFYPSDIAVEWESDGQPENNYKTTPPVLDSDGSFFLYSKLTVDKSRWEQGDVFSCSVMHEALHNHYTQKSLSLSPGK
scFv-Fc: B7 scFv-Fc
light: DIVLTQSPASLSASVGESVTITCRPSENIYGYFAWYQQRQGKSPQLLVYNAKTLAEGVPSRFSGSGSGTHFSLKINSLQPEDFGTYYCQHHYGTPFTFGPGTKVDIKRTVAAPSVFIFPPSDEQLKSGTASVVCLLNNFYPREAKVQWKVDNALQSGNSQESVTEQDSKDSTYSLSSTLTLSKADYEKHKVYACEVTHQGLSSPVTKSFNRGEC
notes: also called anti-TGFßRII×anti-CD5 bsAb based on Cd5-B (by the order of the sentence)
On to B8, for which, in assay [5], the binding result is “binds”.

B9: XENP37385 (bispecific antibody, human IgG1, kappa)
heavy: EVQLKESGAELVRPGGSVKISCKGSGYTFTNFAIHWVKQSHIKTLEWIGLISTSSGDVSYNQKFKDKATMTVDKSSSTAYMELARLTSEDSAIYYCARHYGANNYFDYWGQGTLVTVSSASTKGPSVFPLAPSSKSTSGGTAALGCLVKDYFPEPVTVSWNSGALTSGVHTFPAVLQSSGLYSLSSVVTVPSSSLGTQTYICNVNHKPSDTKVDKKVEPKSCDKTHTCPPCPAPPVAGPSVFLFPPKPKDTLMISRTPEVTCVVVDVKHEDPEVKFNWYVDGVEVHNAKTKPREEEYNSTYRVVSVLTVLHQDWLNGKEYKCKVSNKALPAPIEKTISKAKGQPREPQVYTLPPSREEMTKNQVSLTCDVSGFYPSDIAVEWESDGQPENNYKTTPPVLDSDGSFFLYSKLTVDKSRWEQGDVFSCSVMHEALHNHYTQKSLSLSPGK
scFv-Fc: B7 scFv-Fc
light: EIVLTQSPTIMSASPGEQVTMTCRTNSSVSSSYLHWYQQKSGASPKLWIYGTSNLASGVPTRFSGSGSGTSYSLTISSVEAGDAATYFCQQYSGYPLTFGGGTKVEIKRTVAAPSVFIFPPSDEQLKSGTASVVCLLNNFYPREAKVQWKVDNALQSGNSQESVTEQDSKDSTYSLSSTLTLSKADYEKHKVYACEVTHQGLSSPVTKSFNRGEC
For the molecule B9, the binding result in assay [6] is “binds”.

Values taken from patent publication US20220144956A1 (Xencor, published 2022).
